Results published in publication PMC3472128 (Structure (London, England : 1993), 2012).
Substitutions are numbered along the chain they refer to. Names may count otherwise. “And” between values parts separate entries of the source, which are not always exact repeats. Identical values can stand only once.

T1: Smad7 PY peptide Ac-ELESPPPPYSRYPMD-NH2 (203-217) (human)
T1 peptide: Ac-ELESPPPPYSRYPMD-NH2

B1: Smurf2 WW2-WW3 pair (domain or fragment)
chain: PPDLPEGYEQRTTQQGQVYFLHTQTGVSTWHDPRVPRDLSNINCEELGPLPPGWEIRNTATGRVYFVDHNNRTTQFTDPRLSAN
B2: Smurf1 WW1 domain (residues 233-270) (domain or fragment, human, UniProt Q9HCE7-2 233-270, looked up)
chain: SPELPEGYEQRTTVQGQVYFLHTQTGVSTWHDPRIPRD
B3: Smurf1 WW1-WW2 pair (domain or fragment)
chain: SPELPEGYEQRTTVQGQVYFLHTQTGVSTWHDPRIPRDLNSVNCDELGPLPPGWEVRSTVSGRIYFVDHNNRTTQFTDPRLH
B4: Smurf2 WW3 domain R312E (domain or fragment, human, UniProt Q9HAU4 297-333, looked up)
chain: GPLPPGWEIRNTATGEVYFVDHNNRTTQFTDPRLSAN
B5: Smurf1 WW1-WW2 pair Gln249Glu (domain or fragment)
chain: B3 chain with Q17E
B6: Smurf1 WW1-WW2 pair Gln247 and Gln249 to Glu (domain or fragment)
chain: B3 chain with Q15E, Q17E
B7: Smurf1 WW1-WW2 pair Arg243Ala (domain or fragment)
chain: B3 chain with R11A
B8: Smurf1 WW1-WW2 pair Arg243Glu (domain or fragment)
chain: B3 chain with R11E
B9: Nedd4L WW2 domain Lys378Glu (domain or fragment)
chain: not shown
B10: Nedd4L WW2 domain Arg380Glu (domain or fragment)
chain: not shown
B11: Nedd4L WW2 domain Lys378/Arg380 to Glu (domain or fragment)
chain: not shown
B12: Smurf1 WW2 domain Arg295Glu (domain or fragment, human, UniProt Q9HCE7-2 277-314, looked up)
chain: DELGPLPPGWEVRSTVSGEIYFVDHNNRTTQFTDPRLH
B13: YAP WW1 domain Q186E (domain or fragment, human, UniProt P46937 163-206, looked up)
chain: SSFEIPDDVPLPAGWEMAKTSSGERYFLNHIDQTTTWQDPRKAM
B14: YAP WW2 domain Asp243 and Glu245 to Glutamine (domain or fragment, human, UniProt P46937 227-266, looked up)
chain: SASGPLPDGWEQAMTQQGQIYYINHKNKTTSWLDPRLDPR
B15: Smurf2 WW3 domain (297-333) (domain or fragment)
chain: not shown
B16: Nedd4L WW1 domain (domain or fragment)
chain: not shown
B17: Nedd4L WW3 domain (domain or fragment)
chain: SFLPPGWEMRIAPNGRPFFIDHNTKTTTWEDPRL
B18: Nedd4L WW1-WW2 pair (domain or fragment)
chain: not shown
B19: YAP WW1-WW2 pair (domain or fragment)
chain: SSFEIPDDVPLPAGWEMAKTSSGQRYFLNHIDQTTTWQDPRKAMLSQMNVTAPTSPPVQQNMMNSASGPLPDGWEQAMTQDGEIYYINHKNKTTSWLDPRLDPR
B20: Nedd4L WW2 domain (364-403) (domain or fragment)
chain: not shown
B21: Smurf1 WW2 domain (residues 277-314) (domain or fragment, human, UniProt Q9HCE7-2 277-314, looked up)
chain: B12 chain with E19R
B22: YAP WW1 domain (residues 163-206) (domain or fragment, human, UniProt P46937 163-206, looked up)
chain: B13 chain with E24Q
B23: YAP WW2 domain (residues 227-266) (domain or fragment, human, UniProt P46937 227-266, looked up)
chain: B14 chain with Q17D, Q19E
B24: Nedd4L WW2-WW3 pair (domain or fragment)
chain: TPGLPSGWEERKDAKGRTYYVNHNNRTTTWTRPIMQLAEDGASGSATNSNNHLIEPQIRRPRSLSSPTVTLSAPLEGAKDSPVRRAVKDTLSNPQSPQPSPYNSPKPQHKVTQSFLPPGWEMRIAPNGRPFFIDHNTKTTTWEDPRL
B25: Nedd4L WW4 domain (domain or fragment)
chain: GPLPPGWEERIHLDGRTFYIDHNSKITQWEDPRL
B26: Nedd4L WW3-WW4 pair (domain or fragment)
chain: SFLPPGWEMRIAPNGRPFFIDHNTKTTTWEDPRLKFPVHMRSKTSLNPNDLGPLPPGWEERIHLDGRTFYIDHNSKITQWEDPRL

Target: the molecule itself
Test: native MS

Row | Binder | stoichiometry N
1 | B1 | 2 and 3

Target: the molecule itself
Test: NMR

Row | Binder | stoichiometry N
2 | B2 | 2

Target: T1, Smad7 PY peptide Ac-ELESPPPPYSRYPMD-NH2 …
Test: ITC

Row | Binder | Kd [µM]
3 | B3 | 0.7 ± 0.3
4 | B1 | 0.7 ± 0.3

Target: T1, Smad7 PY peptide Ac-ELESPPPPYSRYPMD-NH2 …
Test: ITC
Remark: another data set of the same source

Row | Binder | Kd [µM]
5 | B3 | 5 ± 0.3
6 | B1 | 5 ± 0.3

Target: T1, Smad7 PY peptide Ac-ELESPPPPYSRYPMD-NH2 …
Test: ITC
Remark: another data set of the same source

Row | Binder | Kd [µM] | fold reduction of affinity against the wild-type WW1-WW2 pair [fold] | fold reduction of affinity against wild-type YAP WW1 [fold] | fold improvement of affinity against wild-type YAP WW2 [fold]
7 | B4 | 34.2 ± 1.6 | – | – | –
8 | B5 | – | 3 | – | –
9 | B6 | – | 3 | – | –
10 | B7 | – | 3 | – | –
11 | B8 | – | 10 | – | –
12 | B9 | 23.5 ± 1.5 | – | – | –
13 | B10 | 15.4 ± 3.5 | – | – | –
14 | B11 | 27.3 ± 2.2 | – | – | –
15 | B12 | 48.6 ± 6.4 | – | – | –
16 | B13 | – | – | 2 | –
17 | B14 | – | – | – | 2

Target: T1, Smad7 PY peptide Ac-ELESPPPPYSRYPMD-NH2 …
Test: ITC
Remark: another data set of the same source

Row | Binder | Kd [µM] | stoichiometry N | fold weaker dissociation constant than YAP WW1 [fold]
18 | B15 | 4.1 | 1 | –
19 | B16 | – | 1 | –
20 | B17 | – | 1 | –
21 | B3 | 1.7 ± 0.3 | 0.7 | –
22 | B18 | – | 1 | –
23 | B19 | 9.8 ± 0.9 | 1 | –
24 | B20 | – | 1 | –
25 | B21 | 4.1 ± 0.6 | 1 | –
26 | B22 | 6.9 ± 0.28 | – | –
27 | B23 | – | – | 9
28 | B24 | – | 2 equivalents of peptide per protein | –
29 | B1 | 1.7 ± 0.3 | – | –
30 | B25 | – | 1 | –
31 | B26 | – | 1 | –
